Experimental data as given in patent publication US20260055182A1 (CIS BIOPHARMA, published 2026).

Tests used:
[1] = target: T1, human FcyRIIIA/CD16a (V176) (human, UniProt P08637 17-208); assay: SPR (Biacore 8K+), receptor reversibly immobilised, antibody as analyte; table token '-' at the 120th table, row 12, column 3
T1 construct: Bought protein, reversibly immobilised for SPR; also called human CD16a (V176)
Protocol: (§1) Effect on interaction with Fc receptor was analyzed by SPR [Instrument: Biacore T200 (C1q and FcRn) and 8K+ for (FcγR)]. Analysis temperature: 25° C., sample compartment: 12° C., Sensor chips: CM3 (C1q) and C1 (FcγR and FcRn).

[2] = target: T2, L1-CAM recombinant protein (His Tag), human (human, UniProt P32004 20-1120); assay: SPR (Biacore 8K) as in Example 6, new batch of L1-CAM on the chip
T2 construct: Bought protein; also called CD171; human L1-CAM; not shown: His tag

[3] = target: human C1q purified protein (human, UniProt P02745 23-245; P02746 28-253; P02747 29-245); assay: SPR (Biacore T200), C1q reversibly immobilised, antibody as analyte; table token '-' at the 120th table, row 16, column 3
Protocol: as §1

EGFR on HEK293 cells = target: T3, EGFR on HEK293 cells (human, UniProt P00533 25-1210); assay: cell microarray confirmation screen, negative control vector; cells of LV40 under EGFR are blank
T3 construct: whole, on cells; also called hEGFR
Protocol: (§2) Vectors encoding all interactions identified in the library screen, plus control vectors encoding CD20 (positive control) and EGFR (transfection and negative control), were arrayed and expressed in HEK293 cells on new slides. Confirmation screen slides and analyses were carried out as for the library screen either after cell fixation (n=2) or in the absence of fixation (n=1). […] Binding to target-expressing cells and non-transfected cells was again assessed by fluorescence imaging.

human FcyRI/CD64 [4] = target: T4, human FcyRI/CD64 (human, UniProt P12314 16-288, limits assumed); assay: SPR (Biacore 8K+), receptor reversibly immobilised, antibody as analyte
T4 construct: Bought protein, reversibly immobilised for SPR; also called human CD64
Protocol: as §1
(§3) Concentration range was adjusted to optimal window depending on results of qualitative analysis. The study was conducted by Biaffin GmbH & Co KG (Bielefeld, Germany).

human FcRn / FCGRT&B2M [5] = target: T5, human FcRn / FCGRT&B2M (human, UniProt P55899 24-297; P61769 21-119); assay: SPR; KD of LV40 over KD of Rituximab (control)
T5 construct: Bought protein, reversibly immobilised for SPR at pH 6.0; also called neonatal receptor
Protocol: as §1, §3

human FcyRI/CD64 [6] = target: T4, human FcyRI/CD64; assay: SPR; KD of LV40 over KD of Rituximab (control)
Protocol: as §1, §3

CD20 on HEK293 cells = target: T6, CD20 on HEK293 cells (human, UniProt P11836 1-297); assay: cell microarray confirmation screen, control vector; cells of LV40 under CD20 are blank
T6 construct: whole, on cells; Positive control target for the Rituximab biosimilar; also called clone 0038
T6 sequence (looked up): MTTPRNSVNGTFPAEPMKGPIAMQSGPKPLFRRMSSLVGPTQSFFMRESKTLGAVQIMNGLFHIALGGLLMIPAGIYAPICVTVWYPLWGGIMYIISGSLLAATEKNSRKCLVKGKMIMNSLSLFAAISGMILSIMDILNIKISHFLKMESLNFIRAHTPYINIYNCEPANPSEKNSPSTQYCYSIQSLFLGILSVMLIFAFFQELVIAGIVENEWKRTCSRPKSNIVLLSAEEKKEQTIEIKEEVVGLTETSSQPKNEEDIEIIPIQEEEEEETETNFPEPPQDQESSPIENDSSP
Protocol: as §2

[7] = target: T7, human FcyRIIA/CD32a (H167) (human, UniProt P12318 36-218); assay: SPR (Biacore 8K+), receptor reversibly immobilised, antibody as analyte; table token '-' at the 120th table, row 10, column 3
T7 construct: Bought protein, reversibly immobilised for SPR; also called human CD32a (H167)
T7 sequence (looked up): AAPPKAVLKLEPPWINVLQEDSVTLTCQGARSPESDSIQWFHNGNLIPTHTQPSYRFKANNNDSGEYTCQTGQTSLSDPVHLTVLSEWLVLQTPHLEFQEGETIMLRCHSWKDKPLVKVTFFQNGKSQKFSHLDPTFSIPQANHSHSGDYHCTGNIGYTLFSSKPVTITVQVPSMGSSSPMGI
Protocol: as §1

human FcRn / FCGRT&B2M [8] = target: T5, human FcRn / FCGRT&B2M; assay: SPR (Biacore T200), pH 6.0, FcRn reversibly immobilised, antibody as analyte
Protocol: as §1, §3

T2 sequence (P32004 20-1120 limits assumed): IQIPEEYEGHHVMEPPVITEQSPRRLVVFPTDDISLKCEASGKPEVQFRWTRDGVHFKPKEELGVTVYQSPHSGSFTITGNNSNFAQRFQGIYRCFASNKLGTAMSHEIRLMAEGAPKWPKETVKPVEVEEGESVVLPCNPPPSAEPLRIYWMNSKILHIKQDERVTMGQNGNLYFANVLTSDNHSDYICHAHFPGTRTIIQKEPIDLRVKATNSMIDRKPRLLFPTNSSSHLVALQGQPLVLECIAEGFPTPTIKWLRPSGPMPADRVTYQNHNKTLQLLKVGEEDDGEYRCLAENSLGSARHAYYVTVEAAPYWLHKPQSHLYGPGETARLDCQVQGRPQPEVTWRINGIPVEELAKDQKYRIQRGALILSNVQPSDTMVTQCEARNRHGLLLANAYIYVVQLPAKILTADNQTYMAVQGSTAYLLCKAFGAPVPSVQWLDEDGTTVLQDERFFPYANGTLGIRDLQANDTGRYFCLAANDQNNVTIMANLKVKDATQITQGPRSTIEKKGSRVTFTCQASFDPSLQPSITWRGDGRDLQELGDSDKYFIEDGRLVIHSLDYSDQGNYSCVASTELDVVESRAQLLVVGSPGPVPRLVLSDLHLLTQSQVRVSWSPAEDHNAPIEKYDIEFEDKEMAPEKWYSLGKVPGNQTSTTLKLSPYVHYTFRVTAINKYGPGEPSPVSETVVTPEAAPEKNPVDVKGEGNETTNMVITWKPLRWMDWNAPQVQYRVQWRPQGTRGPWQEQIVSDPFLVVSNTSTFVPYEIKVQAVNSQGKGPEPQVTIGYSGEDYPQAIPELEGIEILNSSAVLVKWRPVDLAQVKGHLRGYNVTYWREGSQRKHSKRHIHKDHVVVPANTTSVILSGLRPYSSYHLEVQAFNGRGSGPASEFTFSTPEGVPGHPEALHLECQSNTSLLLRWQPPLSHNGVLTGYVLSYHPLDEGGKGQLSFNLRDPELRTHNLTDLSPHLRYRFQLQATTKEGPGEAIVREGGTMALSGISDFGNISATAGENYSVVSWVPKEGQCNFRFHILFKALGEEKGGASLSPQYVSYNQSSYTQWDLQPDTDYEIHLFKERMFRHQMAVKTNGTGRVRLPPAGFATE
T5 sequence (P55899 24-297 limits assumed, chain 1 of 2): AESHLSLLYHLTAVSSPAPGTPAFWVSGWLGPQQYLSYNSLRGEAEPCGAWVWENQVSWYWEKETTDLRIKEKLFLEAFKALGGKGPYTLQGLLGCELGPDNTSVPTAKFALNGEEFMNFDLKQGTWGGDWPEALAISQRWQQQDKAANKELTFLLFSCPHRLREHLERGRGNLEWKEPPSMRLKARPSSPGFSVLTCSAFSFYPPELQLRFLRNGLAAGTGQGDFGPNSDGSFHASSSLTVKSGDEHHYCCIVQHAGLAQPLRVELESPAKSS
T5 sequence (P61769 21-119 limits assumed, chain 2 of 2): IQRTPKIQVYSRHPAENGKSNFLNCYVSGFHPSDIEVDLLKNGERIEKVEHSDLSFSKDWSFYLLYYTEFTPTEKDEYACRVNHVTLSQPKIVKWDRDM
T4 sequence (P12314 16-288 limits assumed): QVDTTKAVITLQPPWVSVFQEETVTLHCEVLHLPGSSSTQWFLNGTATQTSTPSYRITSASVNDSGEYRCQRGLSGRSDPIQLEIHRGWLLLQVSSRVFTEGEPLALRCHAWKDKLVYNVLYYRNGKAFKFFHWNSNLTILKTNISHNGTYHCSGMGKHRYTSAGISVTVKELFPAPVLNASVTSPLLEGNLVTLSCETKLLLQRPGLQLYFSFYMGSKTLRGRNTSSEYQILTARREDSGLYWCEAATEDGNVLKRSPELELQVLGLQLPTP
T1 sequence (P08637 17-208 F176V limits assumed): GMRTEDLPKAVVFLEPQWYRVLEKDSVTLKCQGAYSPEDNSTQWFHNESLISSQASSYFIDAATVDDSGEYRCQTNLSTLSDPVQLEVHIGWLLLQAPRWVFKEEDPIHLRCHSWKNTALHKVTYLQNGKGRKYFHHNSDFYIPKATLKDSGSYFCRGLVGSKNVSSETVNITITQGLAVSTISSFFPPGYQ
Sequence of human C1q purified protein (P02745 23-245, chain 1 of 3): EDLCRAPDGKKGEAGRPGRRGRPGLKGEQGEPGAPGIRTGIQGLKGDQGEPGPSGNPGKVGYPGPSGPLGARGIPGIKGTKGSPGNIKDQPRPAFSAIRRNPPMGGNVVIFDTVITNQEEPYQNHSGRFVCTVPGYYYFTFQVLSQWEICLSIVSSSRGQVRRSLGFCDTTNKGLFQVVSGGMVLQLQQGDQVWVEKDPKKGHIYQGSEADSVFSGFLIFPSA
Sequence of human C1q purified protein (P02746 28-253, chain 2 of 3): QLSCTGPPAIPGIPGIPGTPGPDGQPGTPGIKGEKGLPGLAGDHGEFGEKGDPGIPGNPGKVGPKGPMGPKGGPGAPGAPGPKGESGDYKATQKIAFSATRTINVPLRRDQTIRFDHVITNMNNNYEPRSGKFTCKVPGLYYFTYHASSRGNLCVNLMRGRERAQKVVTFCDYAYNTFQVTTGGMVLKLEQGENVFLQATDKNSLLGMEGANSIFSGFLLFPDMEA
Sequence of human C1q purified protein (P02747 29-245, chain 3 of 3): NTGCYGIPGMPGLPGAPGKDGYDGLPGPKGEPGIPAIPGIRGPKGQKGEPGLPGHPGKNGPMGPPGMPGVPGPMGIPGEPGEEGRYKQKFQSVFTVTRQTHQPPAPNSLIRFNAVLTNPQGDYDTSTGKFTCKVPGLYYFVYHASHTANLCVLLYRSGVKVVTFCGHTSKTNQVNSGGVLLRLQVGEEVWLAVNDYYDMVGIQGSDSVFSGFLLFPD

B1: huCE7 LV40 (antibody, human IgG1, kappa, L234A L235A, N297A)
heavy: QVQLVQSGAEVKKPGASVKVSCKASGYTFTGYFMHWVRQAPGQGLEWIGEINPSNARTNYNERFQGRVTLTVDKSISTAYMELSRLRSDDTAVYYCARDYYGTSYNFDYWGQGTLVTVSSASTKGPSVFPLAPSSKSTSGGTAALGCLVKDYFPEPVTVSWNSGALTSGVHTFPAVLQSSGLYSLSSVVTVPSSSLGTQTYICNVNHKPSNTKVDKKVEPKSCDKTHTCPPCPAPEAAGGPSVFLFPPKPKDTLMISRTPEVTCVVVDVSHEDPEVKFNWYVDGVEVHNAKTKPREEQYASTYRVVSVLPVLHQDWLNGKEYKCKVSNKALPASIEKTISKAKGQPREPQVYTLPPSREEMTKNQVSLTCLVKGFYPSDIAVEWESNGQPENNYKTTPPVLDSDGSFFLYSKLTVDKSRWQQGNVFSCSVMHEALHNHYTQKSLSLSPGK
light: DIQMTQSPSSLSASVGDRVTITCKANEDINARLAWYQQKPGKAPKLLISGATNLVTGVPSRFSGSGSGKDYTLTISSLQPEDFATYYCQQYYSTPFTFGQGTKLEIKRTVAAPSVFIFPPSDEQLKSGTASVVCLLNNFYPREAKVQWKVDNALQSGNSQESVTEQDSKDSTYSLSSTLTLSKADYEKHKVYACEVTHQGLSSPVTKSFNRGEC
notes: Variant 7AG (IgG1, N297A L234A L235A P331S) with HC WH33F, GH55A, TH307P and LC NL31A, WL92Y; also called huCE7 variant LV40; huCE7-variant40
binding result [1]: no binding | Kd [2]: 0.0644 nM | koff [2]: 0.000472 s⁻¹ | kon [2]: 7.32e+06 M⁻¹ s⁻¹ | binding result [3]: no binding | binding result (EGFR on HEK293 cells): no binding (tested: 20 µg/mL) | Kd (human FcyRI/CD64 [4]): 15.8 nM | ratio KD (KD sample / KD control) (human FcRn / FCGRT&B2M [5]): 1.2 | ratio KD (KD sample / KD control) (human FcyRI/CD64 [6]): 389 | binding result (CD20 on HEK293 cells): no binding (tested: 20 µg/mL) | binding result [7]: no binding | Kd (human FcRn / FCGRT&B2M [8]): 459 nM
